Results published in patent US11639503B2, “Anti-chymase aptamer and use for same” (RIBOMIC INC., priority 2017, dated 2023).
Oligonucleotides are written 5' to 3', each unit as a sugar letter and its base; * is a phosphorothioate linkage, no mark a phosphodiester; rarer units and linkages stand in square brackets, end groups in braces. Plain capitals give the bases only. r = 2'-OH (RNA); f = 2'-fluoro

T1: chymase (recombinant, manufactured by SIGMA) (Homo sapiens, UniProt P23946)
T1 construct: purchased SIGMA
T1 sequence (P23946 22-247): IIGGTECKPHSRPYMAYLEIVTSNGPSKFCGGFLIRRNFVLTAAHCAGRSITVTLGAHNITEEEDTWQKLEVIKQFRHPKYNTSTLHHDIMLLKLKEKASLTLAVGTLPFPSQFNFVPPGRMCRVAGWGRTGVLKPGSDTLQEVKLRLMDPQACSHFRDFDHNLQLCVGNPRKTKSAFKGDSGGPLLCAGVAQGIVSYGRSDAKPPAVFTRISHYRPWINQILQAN

T2: chymase purified from human skin mast cell (native, Calbiochem) (Homo sapiens, UniProt P23946)
T2 construct: Here, the native is chymase purified from human skin mast cell; purchased Calbiochem; host or cells: human skin mast cell (tissue-derived)
T2 sequence (P23946 22-247): T1 sequence (P23946 22-247)

B1: 4 (nucleic acid)
chain: rGrGrGrArGfCrArGrGrArGrArGrArGrGfUfCrArGrAfUrGfUrArAfCfUfCfUrAfUfUrGrArGrGrGrGfCrAfUfCrArGfCrAfCrArGfUrArGfCfCfUrAfUrGfCrGfUrGfCfUrArGfUrGfUrGrA
modifications: aptamer
B2: 6 (nucleic acid)
chain: rGrGrGrArGfCrArGrGrArGrArGrArGrGfUfCrArGrAfUrGfUfCrAfUrGrAfCfUfUrAfUrArGrGfUrArAfCfCrGrAfUrArAfUrGrGrGrGrGfCfCfUrAfUrGfCrGfUrGfCfUrArGfUrGfUrGrA
modifications: aptamer
B3: 8 (nucleic acid)
chain: rGrGrGrArGfCrArGrGrArGrArGrArGrGfUfCrArGrAfUrGrAfUfUrGrAfCrGrAfCfUrAfUrArGrGfUrArAfCfCfUfUfUrAfCrGrGrGrGrGfCfCfUrAfUrGfCrGfUrGfCfUrArGfUrGfUrGrA
modifications: aptamer
B4: 7 (nucleic acid)
chain: rGrGrGrArGfCrArGrGrArGrArGrArGrGfUfCrArGrAfUrGfUfUfUrGrGfUrArGfUrArAfCfUrGrGrArAfUrArGrGrGrGfCfUrAfCrArGrGfCfCfUrAfUrGfCrGfUrGfCfUrArGfUrGfUrGrA
modifications: aptamer
B5: 5 (nucleic acid)
chain: rGrGrGrArGfCrArGrGrArGrArGrArGrGfUfCrArGrAfUrGrAfUrGrAfCfCrGrAfUfUrAfUrArGrGfUrArAfCfCrAfCfUfUrArGrGrGrGrGfCfCfUrAfUrGfCrGfUrGfCfUrArGfUrGfUrGrA
modifications: aptamer
B6: 2 (nucleic acid)
chain: rGrGrGrArGfCrArGrGrArGrArGrArGrGfUfCrArGrAfUrGrAfUfCrGrGrAfCrAfUrArAfCrAfUfUrGfUfUrGrGrGrGfUrGfUfCrArArGrGfCfCfUrAfUrGfCrGfUrGfCfUrArGfUrGfUrGrA
modifications: aptamer
B7: 1 (nucleic acid)
chain: rGrGrGrArGfCrArGrGrArGrArGrArGrGfUfCrArGrAfUrGrArGfCrAfUrGfCfUfUfUfUfUrGrGfUrArAfCfCrGrAfUrArAfUrGrGrGrGrGfCfCfUrAfUrGfCrGfUrGfCfUrArGfUrGfUrGrA
modifications: aptamer
B8: 3 (nucleic acid)
chain: rGrGrGrArGfCrArGrGrArGrArGrArGrGfUfCrArGrAfUrGrAfUrArAfCfCrArGfUfUrGrGrGrGrGrGfUfCrArAfUfUrAfCrAfUrGrGrGrAfCfCfUrAfUrGfCrGfUrGfCfUrArGfUrGfUrGrA
modifications: aptamer

Key:
[1] = target: T1, chymase (recombinant, manufactured by SIGMA); assay: chymase enzyme activity inhibition, synthetic substrate Suc-Ala-Ala-Pro-Phe-MCA; assay type: biochemical
Method: A first method employs a synthetic substrate. A useful chymase substrate is Suc-Ala-Ala-Pro-Phe-MCA (4-methylcoumaryl-7-amide group) (manufactured by Peptide Institute, Inc.), which contains the 4-amino acid peptide “Ala-Ala-Pro-Phe” (SEQ ID NO: 41), a standard substrate for chymotrypsin-like proteases.
The assay is performed using a 96-well plate (F16 Black Maxisorp Fluoronunc, manufactured by Nunc), with a reaction mixture volume of 100 μL, in a buffer solution (solution C; see Example 2 below). First, each nucleic acid is prepared in solution C to obtain 50 μL solutions. After 10 μL of the 1 mM substrate prepared in solution C is added, the plate is set to the microplate reader SpectraMax190 (manufactured by Molecular Devices Corporation), and incubated at 37° C. for 5 minutes. Separately, 0.05 μg of chymase (recombinant, manufactured by SIGMA) is diluted in solution C, and 40 μL of this dilution is incubated at 37° C. for 5 minutes. The chymase solution is added to the mixture of the nucleic acid and substrate to initiate an enzyme reaction. The plate containing the reaction mixture is set to the microplate reader SpectraMax190 (manufactured by Molecular Devices Corporation), and examined for time-dependent changes in the fluorescence intensity at 37° C. for 5 minutes (excitation wavelength 380 nm, detection wavelength 460 nm). A linear approximation of the increase in the fluorescence of the AMC (7-amino-4-methylcoumarine) released from the substrate by chymase activity is generated, and its slope is taken as the initial reaction velocity. For control, samples are treated and analyzed in the same manner in two cases: use of a nucleic acid pool containing a random sequence of 30 or 40 nucleotides (negative control), and use of chymostatin, a known chymotrypsin-like serine protease inhibitor (positive control). Taking the initial reaction velocity without the nucleic acid and inhibitor as a 100% enzyme activity, the inhibitory rate for each test substance is calculated, and the inhibitor concentration required to cause a 50% inhibition of the enzyme activity (IC50) is determined.
Whether the nucleic acids shown by SEQ ID NO: 1-8 inhibit the enzyme activity of chymase was determined as described below. The chymase substrate used was Suc-Ala-Ala-Pro-Phe-MCA (manufactured by Peptide Institute, Inc.), which contains the 4-amino-acid peptide Ala-Ala-Pro-Phe, a standard substrate for chymotrypsin-like proteases. Here, Suc is a protecting succinyl group, and MCA is a 4-methylcoumaryl-7-amide group; upon cleavage of the C-terminal side of phenylalanine, AMC (7-amino-4-methylcoumarine) is released. By detecting the fluorescence of this AMC, the enzyme activity of chymase can be determined. The assay was performed using a 96-well plate (F16 Black Maxisorp Fluoronunc, manufactured by Nunc), with a reaction mixture volume of 100 μL, in solution C as a buffer solution. Here, the solution C is a mixed solution of 145 mM sodium chloride, 5.4 mM potassium chloride, 1.8 mM calcium chloride, 0.8 mM magnesium chloride, 20 mM Tris (pH 7.6), and 0.05% Tween20. First, nucleic acid was serially diluted in solution C to obtain 50 μL solutions. After 10 μL of the 1 mM substrate prepared in solution C was added thereto, the plate was set to the microplate reader SpectraMax190 (manufactured by Molecular Devices Corporation), and incubated at 37° C. for 5 minutes. […] The chymase solution was added to the mixture of the nucleic acid and substrate to initiate an enzyme reaction. The final chymase concentration in the reaction mixture was 16.7 nM, the final substrate concentration being 100 μM. The plate containing the reaction mixture was set to the microplate reader SpectraMax190 (manufactured by Molecular Devices Corporation), and examined for time-dependent changes in the fluorescence intensity at 37° C. for 5 minutes (or 30 minutes) (excitation wavelength 380 nm, detection wavelength 460 nm). […]

[2] = target: T2, chymase purified from human skin mast cell (native, Calbiochem); assay: chymase enzyme activity inhibition, native substrate angiotensin I (His-Leu fluorescence); assay type: biochemical; conditions: mean of 2 or 3 measurements
Method: A second method of evaluation employs a native substrate. A useful native substrate for chymase is angiotensin I. Here, His-Leu, a peptide fragment released upon degradation of angiotensin I, is fluorescently derivatized, and the fluorescence intensity therefrom is quantified.
In the assay, an enzyme reaction is carried out in 50 μL of solution C. First, 0.3-0.75 ng of chymase (recombinant, manufactured by SIGMA; or native, manufactured by Calbiochem) is diluted in solution C to obtain 5 μL chymase solution. Each nucleic acid is prepared in solution C to obtain 25 μL solutions. 5 μL of each chymase dilution and 25 μL of each nucleic acid solution are mixed, and then the mixture is incubated at 37° C. for 5 minutes. Separately, 20 μL of 125 μM angiotensin I (manufactured by Peptide Institute, Inc.) is prepared in solution C and incubated at 37° C. for 5 minutes. The angiotensin I solution is added to the mixture of chymase and nucleic acid, and the enzyme reaction is initiated. After the reaction was allowed to proceed at 37° C. for 90 minutes, 25 μL of ice-cooled 30% trichloroacetic acid solution is added to terminate the reaction. The entire mixture is centrifuged at 4° C., 14000 rpm for 10 minutes, and 30 μL of the resulting supernatant is used for the subsequent reaction for fluorescent derivatization.
After 30 μL of the supernatant is added to a 96-well plate (Black, manufactured by Costar), 15 μL of 2% o-phthalaldehyde (manufactured by SIGMA) solution in methanol and 170 μL of 0.3M NaOH solution are mixed in each well, and the plate is allowed to stand at room temperature for 10 minutes. Subsequently, 25 μL of 3M HCl solution is added to terminate the reaction. The plate is set to the microplate reader SpectraMax190 (manufactured by Molecular Devices Corporation), and the fluorescence intensity is determined at an excitation wavelength of 355 nm and a fluorescence wavelength of 460 nm.
For control, samples are treated and analyzed in the same manner in two cases: use of SEQ ID NO: 58 (negative control) and use of chymostatin, a known chymotrypsin-like serine protease inhibitor (positive control). In both cases, fluorescence intensity obtained at 0 minute reaction time serves as a blank determination. Taking the fluorescence intensity detected with the addition of an equal volume of solution C, in place of each nucleic acid, in the chymase enzyme reaction as 100%, the inhibitory rate for each test substance is calculated, and the inhibitor concentration required to cause a 50% inhibition of the enzyme activity (IC50) is determined.
Whether the nucleic acids shown by SEQ ID NO: 9 and 10 inhibit the enzyme activity of chymase was determined by the following method. Angiotensin I is converted by chymase to angiotensin II, during which a peptide fragment His-Leu is released. Since the peptide His-Leu is fluorescently derivatized by o-phthalaldehyde, its fluorescence intensity can be quantitatively measured.
The total volume of solution for an enzyme reaction in the assay was set to 50 μL, and the reaction was performed in solution C buffer. At first, native (manufactured by Calbiochem) was diluted with solution C to give 5 μL thereof. Here, the native is chymase purified from human skin mast cell. The nucleic acid was serially diluted with solution C at a concentration of 0.0027-2 μM to give 25 μL thereof. The chymase solution (5 μL) and the nucleic acid solution (25 μL) were mixed, and the mixture was incubated at 37° C. for 5 min. On the other hand, […] angiotensin I (manufactured by PEPTIDE INSTITUTE, INC.) was prepared in solution C to give 20 μL thereof, which was incubated at 37° C. for 5 min. The angiotensin I solution was added to a mixture of chymase and nucleic acid to start an enzyme reaction. The final chymase concentration of the reaction solution was 0.5 nM, and the final substrate concentration was 50 μM. […]

[3] = Table 1, substrate Suc-Ala-Ala-Pro-Phe-MCA 100 μM, chymase 0.05 μg (16.7 nM), 37° C., mean of 2 or 3 measurements
[4] = Table 5, MCA substrate, amount of chymase 0.005 μg instead of 0.05 μg, one measurement

Molecule	IC50 [1, 3]	other results
CC(C)C[C@H](NC(=O)[C@@H](NC(=O)N[C@@H](Cc1ccccc1)C(=O)O)[C@@H]1CCN=C(N)N1)C(=O)N[C@H](C=O)Cc1ccccc1 [chymostatin, reference compound]	100 to 200 nM	IC50 ([2]; Table 2, substrate angiotensin I 50 μM, chymase 0.5 nM, 37° C. 90 min): 350 to 500 nM
21 (GGCAGAUGAUCGGACAUAACAGGUUAGAUAGAGUUAAAAACCUGGGGUGUCAA; 2'-fluoro at CU, RNA at AG, backbone not given here) [compound 21]	–	IC50 [1, 4]: 5.7 nM
23 (GGCAGAUGAUCGGACAUAACAGUAGAUAGAGUUAAAACUGGGGUGUCAA; 2'-fluoro at CU, RNA at AG, backbone not given here) [compound 23]	–	IC50 [1, 4]: 7.8 nM
22 (GGCAGAUGAUCGGACAUAACAGUUAGAUAGAGUUAAAAACUGGGGUGUCAA; 2'-fluoro at CU, RNA at AG, backbone not given here) [compound 22]	–	IC50 [1, 4]: 5 nM
B1	10.8 nM	–
B2	5.5 nM	–
B3	35 nM	–
B4	52 nM	–
B5	7 nM	–
B6	31 nM	IC50 ([2]; Table 3, angiotensin I as substrate, >1 = no inhibitory activity up to 1 μM): 10 nM; IC50 ([2]; Table 4, angiotensin I as substrate): 10 nM; IC50 ([2]; Table 6, angiotensin I as substrate): 10 nM
B7	41 nM	–
B8	26 nM	–
